Data on 3 molecules can be found in patent publication US20030143192A1 (Human Genome Sciences, published 2003).

Assay [1] deals with T1, human CCR3 (human, UniProt P51677 1-355).
T1 construct: whole, on cells; also called chemokine receptor-3; hCCR3
T1 sequence (looked up): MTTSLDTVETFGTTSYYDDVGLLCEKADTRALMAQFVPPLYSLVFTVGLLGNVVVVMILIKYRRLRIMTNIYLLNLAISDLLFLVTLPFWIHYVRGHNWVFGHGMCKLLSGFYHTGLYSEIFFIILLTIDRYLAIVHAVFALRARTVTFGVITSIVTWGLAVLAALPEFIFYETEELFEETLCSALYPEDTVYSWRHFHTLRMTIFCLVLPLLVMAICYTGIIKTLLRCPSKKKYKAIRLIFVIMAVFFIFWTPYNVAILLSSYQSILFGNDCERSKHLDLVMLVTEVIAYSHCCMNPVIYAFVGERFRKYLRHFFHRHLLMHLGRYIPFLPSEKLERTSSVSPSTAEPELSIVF
Nature of the assay: homologous displacement of 0.1 nM 125I-MCP4 from purified human eosinophils (CCR3). The method, then:
(§1) After washing with binding buffer containing 0.5M NaCl, the percentage of radio-iodinated ligand remaining bound was calculated compared to assays in which no unlabeled chemokine was added. Each point is the mean of three identical incubations and standard error is included. (C) 2×10⁵ purified eosinophils were incubated for 2 hrs at room temperature in azide-containing binding buffer with 45 nM ¹²⁵I-Met-Ckβ7* plus 500 nM of the various unlabeled chemokines indicated at the bottom of the graph. Cells were washed twice with PBS and remaining ¹²⁵I-Met-Ckβ7* bound was counted. Results are the mean of three identical incubations represented as a percentage of the binding seen in the absence of competitor, and standard error is included.
(§2) Eosinophil ¹²⁵I-Chemokine Binding Assay. 2×10⁵ purified eosinophils were placed in each well of a 96 well plate in binding buffer (1 mM CaCl₂, 5 mM MgCl₂, 0.5% BSA, 0.05% sodium azide, 50 mM Hepes (pH 7.5)). Iodinated chemokine (final concentration of 0.1 nM ¹²⁵I-eotaxin or ¹²⁵I-MCP4, specific activity 2200 Ci/mmol (NEN, Boston, Mass.)) was added in the absence or presence of unlabeled chemokines to a final volume of 100 μl. […] The plates were dried and counted after addition of 50 μl of liquid scintillant in each well. […] Cells were then washed twice with ice cold PBS and counted in a Beckman Gamma 5500B counter. […]

Assay [2] has as its target T1, human CCR3. Nature of the assay: displacement of 0.1 nM 125I-eotaxin from purified human eosinophils (CCR3). The protocol: as §1, §2
The target of assay [3] is T1, human CCR3. Briefly: displacement of 0.1 nM 125I-MCP4 from purified human eosinophils (CCR3). The protocol: as §1, §2
In assay [4] the target is T2, human D6 chemokine receptor (human, UniProt O00590 1-384).
T2 construct: whole, on cells
T2 sequence (looked up): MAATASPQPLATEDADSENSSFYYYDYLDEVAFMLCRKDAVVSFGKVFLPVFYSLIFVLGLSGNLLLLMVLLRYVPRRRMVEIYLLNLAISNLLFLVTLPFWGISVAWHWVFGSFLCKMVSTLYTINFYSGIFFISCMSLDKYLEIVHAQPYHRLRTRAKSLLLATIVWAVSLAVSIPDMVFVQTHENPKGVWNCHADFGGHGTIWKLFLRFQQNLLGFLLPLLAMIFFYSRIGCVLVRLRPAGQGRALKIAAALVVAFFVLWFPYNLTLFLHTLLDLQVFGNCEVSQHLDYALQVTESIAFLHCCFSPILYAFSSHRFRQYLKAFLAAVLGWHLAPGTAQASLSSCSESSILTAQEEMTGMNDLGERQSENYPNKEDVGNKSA
Nature of the assay: displacement of 125I-MIP1α in binding assays on CHO cells expressing D6 (not shown). Background: Loss of bound radioactivity is the signal in a displacement assay; it reports binding, not function.

The target in assay [5] is T1, human CCR3. Nature of the assay: displacement of 0.1 nM 125I-eotaxin from 2x10^5 purified human eosinophils (CCR3), 60 min at room temperature. The method, then: as §1, §2
In assay [6] the target is T1, human CCR3. Briefly: homologous displacement of 0.1 nM 125I-eotaxin from purified human eosinophils (CCR3). The protocol:
as §1, §2

B1: MCP4 (ligand)
chain: not shown
notes: also called monocyte chemotactic protein-4; Ckβ-10
The term IC50 denotes the concentration needed to halve the response being measured. Low values mean greater potency in that assay, high ones weaker potency in that assay. In the case of B1, the figures for the IC50 with human CCR3 [1] and in the assay with human CCR3 [2] were ~25 nM and ~60 nM, respectively.

B2: Met-Ckβ7* (ligand)
chain: MQVGTNKELCCLVYTSWQIPQKFIVDYSETSPQCPKPGVILLTKRGRQICADPNKKWVQKYISDLKLMPEA
notes: E. coli-produced modified form of Ckβ7/MIP4: signal peptide removed, N-terminal Ala of the mature protein replaced by Met, C-terminus LKLMPEA; also called Met-22-87-Met-Pro-Glu-Ala; hg00701-e2
Regarding B2, the IC50 was ~5 nM with human CCR3 [3] and ~6 nM in the assay with human CCR3 [5]. The binding result in assay [4] is “no binding (tested: 700 nM)”.

B3: eotaxin (ligand)
chain: not shown
notes: also called human eotaxin
For B3, the IC50 is ~5 nM with human CCR3 [3] and ~10 nM with human CCR3 [6].
